The record followed here is patent US20080064629A1, “Amphiregulin as a Protective Agent in Acute Hepatic Injury” (priority 2004, published 2008).

What all share (assay type): cell-based
Assay [1] has as its system mouse hepatocytes in primary culture. Briefly: Apoptosis induced by actinomycin D and Jo2 antibody in mouse hepatocytes in primary culture. From the text:
In order to determine whether the in vivo antiapoptotic effects of AR could be mediated by direct action of AR on liver parenchymal cells, the inventors used mouse hepatocytes in primary culture. It has been reported that hepatocytes exposed to Jo-2 antibodies undergo apoptosis effectively in presence of actinomycin D [(5), (6), (33) Ni, R., Tomita, Y., Matsuda, K., Ichiara, A., Ishimura, K., Ogasawara, J., Nagata, S. 1994. Fas-mediated apoptosis in primary cultured mouse hepatocytes. Exp. Cell Res. 215: 332-337]. Hepatocytes were pretreated with different concentrations of AR during […] before addition of actinomycin D and Jo2 antibody. Measurements of apoptosis and related molecular events, were made 18 h later. […] Likewise, they found antiapoptotic protein Bcl-xL to be induced by treatment with AR in mouse hepatocytes treated with Jo2 (FIG. 4B). In order to identify the AR antiapoptotic signaling mechanisms, PI-3K/Akt and ERK1/2 pathways were studied, as they are general mediators of cell survival [(4), (6)]. […] A key signaling molecule implicated in protection against liver damage induced by Fas is STAT3 [(34) Shen, Y., Devgan, G., Darnell, J. E., Bromberg, J. F. 2001. Constitutively activated Stat3 protects fibroblasts from serum withdrawal and UV-induced apoptosis and antagonizes the proapoptotic effects of activated Statl. Proc. Natl. Acad. Sci. USA. 98: 1543-1548. (35) Haga, S., Terui, K., Zhang, H. Q., Enosawa, S., Ogawa, W., Inoue, H., Okuyama, T., Takeda, K., Akira, S., Ogino, T., et al. 2003. Stat3 protects against Fas-induced liver injury by redox-dependent and -independent mechanisms. J. Clin. Invest. 112: 989-998].
(§1) Hepatocytes were isolated from male Wistar rats (150 g) and C57/BL6 mice (20 g) by perfusion with collagenase (Gibco-BRL, Paisley, UK) as described elsewhere [(18), (20)]. Cells (5×10^5 cells per well) were plated onto 6-well plates coated with collagen (type I collagen, Collaborative Biomedical, Bedford, Mass., USA). Cultures were maintained in MEM medium supplemented with 10% fetal calf serum (FCS), non-essential amino acids, glutamine 2 mM and antibiotics (all supplied by Gibco-BRL). After 2 h of incubation, the medium was removed and cells were again cultured in the same medium with 5% FCS. Where applicable, hepatocytes were treated with IL-1β or TNFα from Roche (Mannheim, Germany), HGF or forskolin from Calbiochem (San Diego, Calif., USA), IL6 from RD Systems (Wiesbaden-Nordenstadt, Germany), or PGE2 from Alexis QBiogene (Carlsbad, Calif., USA).
Apoptosis was induced in cultured mouse hepatocytes by treatment with 0.5 μg/ml of Jo2 antibody and 0.05 μg/ml of actinomycin D as described elsewhere (5). Where applicable, the hepatocytes were treated with AR 6 h before the addition of Jo2 antibody and actinomycin D. Apoptosis was estimated by determining soluble histone-DNA complexes using the Cell Death Detection Assay (Roche). ELISA tests for determining cell death were carried out following the manufacturer's instructions. The specific enrichment of mono- and oligonucleosomes released in the cytoplasm (enrichment factor, EF) was calculated as the ratio between the absorbance values of the samples corresponding to treated cells and control cells. […]
Caspase-3 activity in mouse hepatocytes and liver tissue lysates was assessed using the Caspase-3/CPP32 colorimetric assay kit (BioVision, Palo Alto, Calif., USA). […]

Assay [2] has as its system hepatocytes. Briefly: Apoptosis induced by other agents (TNFα plus galactosamine, okadaic acid, TGFβ) in hepatocytes. Conditions: okadaic acid and TGFβ, data not shown.
The test system of assay [3] is isolated rat hepatocytes. Briefly: TGFα and CT-1 gene expression in cultured rat hepatocytes treated with AR. As to conditions: AR treatment, different periods of time. As for the experimental part:
as §1, with “Where applicable, hepatocytes were treated with IL-1β or TNFα from Roche (Mannheim, Germany), HGF or forskolin from Calbiochem (San Diego, Calif., USA), IL6 from RD Systems (Wiesbaden-Nordenstadt, Germany), or PGE2 from Alexis QBiogene (Carlsbad, Calif., USA).” left out
Total RNA was extracted using TRI reagent (Sigma). […] PCR products were subjected to electrophoresis in 2% agarose gels, followed by staining with ethidium bromide and quantification using Molecular Analyst software (Bio-Rad, Hercules, Calif., USA). […]
Real time PCR was performed using an iCycler (BioRad) and iQ SYBR Green Supermix (Bio-Rad). In order to monitor the specificity of final PCR products, the latter were analysed by fusion curves and electrophoresis. The amount of each transcript was expressed as n-fold the difference versus expression of the reference gene (β-actin)(2^ΔCt, where ΔCt represents the difference in threshold cycle between target genes and control gene).

B1: amphiregulin (protein)
chain: SVRVEQVVKPPQNKTESENTSDKPKRKKKGGKNGKNRRNRKKKNPCNAEFQNFCIHGECKYIEHLEAVTCKCQQEYFGERCGEKSMKTHSMIDSSLSK
notes: polypeptide growth factor belonging to the EGF family, ligand of EGF receptor; human recombinant AR (Sigma) used
With B1, in assay [1] (AR 20 nM, mouse hepatocytes treated with Jo2), the “antiapoptotic protein Bcl-xL (Western blot)” value was “induced”. In addition, the “proteolysis and activation of caspase-3 induced by Jo2 antibody” value in assay [1] (AR 20 nM, mouse hepatocytes treated with actinomycin D and Jo2) is recorded as “significantly inhibited”. The “apoptosis (enrichment factor of mono- and oligonucleosomes)” value in assay [1] (increasing concentrations of AR before actinomycin D and Jo2, measured 18 h later) is recorded as “protected from apoptosis by AR in a dose-dependent manner”. The “cytoprotective activity against apoptosis induced by other agents” value in assay [2] was “cytoprotective activity was also seen”. In addition, in assay [3], the “levels of mRNA encoding CT-1” value is reported as “increased” and the “levels of mRNA encoding TGFα” value is on record as “increased”.
